# Data: patent US20260139065A1 (Novartis, published 2026)
# Biological target: T1, BAFF-R (B-cell activating factor receptor) (human, UniProt Q96RJ3 1-78, limits assumed)
# T1 construct: also called BAFF receptor; BR3
# T1 sequence (looked up): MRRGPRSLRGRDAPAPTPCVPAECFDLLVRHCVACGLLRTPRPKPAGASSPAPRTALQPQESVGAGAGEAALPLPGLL
# Assay: in vitro experiments (method not given); used as a parameter of the tissue receptor occupancy model
binder,measurement,value
"ianalumab (antibody, human IgG1, kappa, V domains shown, also called VAY736; anti-BAFF-R antibody) VH: QVQLQQSGPGLVKPSQTLSLTCAISGDSVSSNSAAWGWIRQSPGRGLEWLGRIYYRSKWYNSYAVSVKSRITINPDTSKNQFSLQLNSVTPEDTAVYYCARYDWVPKIGVFDSWGQGTLVTVSS VL: DIVLTQSPATLSLSPGERATLSCRASQFISSSYLSWYQQKPGQAPRLLIYGSSSRATGVPARFSGSGSGTDFTLTISSLEPEDFAVYYCQQLYSSPMTFGQGTKVEIKR",Kd,0.046 nM
